Assay results taken from patent EP4659811A1 (Université de Strasbourg, dated 2025).

Experiments:
[1] = molecular target: VP1 capsid protein on BKV pseudovirions of genotype Ia (BK-D; JF894228) (BK virus genotype Ia (BK-D)); assay: cell-based or functional assay
[2] = molecular target: VP1 capsid protein on BKV pseudovirions of genotype II (GBR-12; AB263920) (BK virus genotype II (GBR-12)); assay: cell-based or functional assay
[3] = molecular target: VP1 capsid protein on BKV pseudovirions of genotype IVc2 (A-66H; AB369093) (BK virus genotype IVc2 (A-66H)); assay: cell-based or functional assay
[4] = molecular target: T1, VP1 pentamer of BKV genotype II (recombinant) (BK virus genotype II, UniProt P14996 30-300); assay: ELISA, coated VP1 pentamer
T1 construct: also called GII; VP1 geno II pentamer; not shown: N-terminal His-tag of pESPRIT002; C-terminal biotin acceptor peptide (BAP) of pESPRIT002

[5] = molecular target: T2, VP1 pentamer of BKV genotype IV (recombinant) (BK virus genotype IV, UniProt P14996 30-300); assay: ELISA, coated VP1 pentamer
T2 construct: also called GIV; VP1 BKV subtype IV; not shown: N-terminal His-tag of pESPRIT002; C-terminal biotin acceptor peptide (BAP) of pESPRIT002

B1: antibody B7P3 (antibody, V domains shown)
VH: EVQLVESGGGVVQPGRSLRLSCAASGFTFSNFGMHWVRQPPGKGLEWVAVISYDGSDKFYADSVKGRFTISRDNFKNTLYVQMNSLRAEDTAVYYCAKDRVRTKYYYDHSGPFDYWGRGTLVTVSS
VL: SYVLTQPPSVSVAPGQTARIACGGNNIGSKSVHWYQQRPGQAPVLVVYDDDDRPSGIPERFSGSNSGNTATLTISRVEAGDEADYFCQVWMTNSDRPVFGGGTKLTVL
Neutralization PSV IC50 [1]: 0.0004 µg/mL
Neutralization PSV IC50 [2]: 3.43 µg/mL
Neutralization PSV IC50 [3]: > 50 µg/mL

B2: antibody E10P2 (antibody, V domains shown)
VH: EVQLLESGGALVQPGGSLRLSCAASGFTFRSYAMNWVRQAPGKGLEWVSSLSSSGTTTYYADSVKGRFTISRDNSKNTMYLQMDSLRGEDTAVYYCAKDRNAQWLGSEPLDPWGQGTLVTVSS
VL: EIVLTQSPGTLSLSPGERATLSCRASQSVSSSYLAWYQQKPGQAPRLLIYGASSRATGIPDRFSGSGSGTDFTLTISSLQPDDFAIYYCQQAYTFPWTFGQGTKLEIK
Neutralization PSV IC50 [1]: 1.64 µg/mL
Neutralization PSV IC50 [2]: 20.1 µg/mL
Neutralization PSV IC50 [3]: > 50 µg/mL
binding result [4]: no binding (tested: starting at 50 µg/mL)
binding result [5]: no binding (tested: starting at 50 µg/mL)

B3: antibody B3P3 (antibody, V domains shown)
VH: EVQLVESGGGVVQPGRSLRLSCVTSGFTFESYGIHWVRQAPGKGLEWVAVISNDGSIEDYAGSVKGRFTISGDKAKNTVYLQVNSLRPDDTAVYYCAKDAVGITGGSLYYSYGMDVWGQGTTVTVSS
VL: DIQMTQSPSPLSAFIGGRVTITCRASQTIKNYLNWYQQKPGEAPKLLIYTASTLQNGVPSRFSGSRSGTDFTLTITSLQPEDFATYYCQQSYSAPYSFGQGTKLEIK
Neutralization PSV IC50 [1]: > 50 µg/mL
Neutralization PSV IC50 [2]: > 50 µg/mL
Neutralization PSV IC50 [3]: > 50 µg/mL

B4: antibody C4P7 (antibody, V domains shown)
VH: EVQLLESGGGLVQPGGSLRLSCAASGFTFSSYAMSWVRQAPGKGLEWVSSLTGSGGSTYYRDSVKGRFTIFRDNSKKTLYMQMNSLRAEDTAVYYCAKEGAYSYDFWYFDLWGRGTLVTVSS
VL: EIVLTQSPGTLSLSPGERATLSCRASQTVSGNYLAWYQQKPGQSPSLLIYGASSRATGIPDRFTGSGSGTDFTLTISRLEPADFAVYYCQQYGRPLTFGGGTKVEIK
Neutralization PSV IC50 [1]: 0.493 µg/mL
Neutralization PSV IC50 [2]: 0.0609 µg/mL
Neutralization PSV IC50 [3]: > 3.12 µg/mL

B5: antibody F11P5 (antibody, V domains shown)
VH: QVQLVQSGSELKKPGASVKVSCKASAYTFTNSAINWVRQAPGQGLEWMGWINTNTGNPAYAQGFRGRFVFSLDTSVSEAYLQISNLKAEDTATYYCTVPYNFGGDHNSYYFFGVDIWGQGTTVTVSS
VL: QSALTQPASVSGSPGQSITISCTGSSSDVGSYNLVSWFQQHPAKAPKVMIYEGTKRPSGVSDRFSGSKSGNTASLTISGLQAEDEADYYCCSYAGSNTFVFGTGTKVSVL
Neutralization PSV IC50 [1]: 0.492 µg/mL
Neutralization PSV IC50 [2]: 1.56 µg/mL
Neutralization PSV IC50 [3]: 46.5 µg/mL

B6: antibody C6P8 (antibody, V domains shown)
VH: EVQLVESGGGLVQPGGSLKLSCAASGFTFSGSEIHWVRQASGKGLEWIGRVRSRANRHATGYSESVKGRFTISRDDSKNTASLQLNSLKIEDTAVYYCTGVRGVISRYFAMDVWGQGTTVTVSS
VL: SYVLTQTPSVSVAPGQTARITCGGNNIGSNSVHWYQQKPGQAPILVVYDDSERPSGIPERFSGSNSGNTATLTISRVEGGDEADYQCQVWDRRGDLLVFGGGTKLTVL
Neutralization PSV IC50 [1]: 6.92 µg/mL
Neutralization PSV IC50 [2]: 0.44 µg/mL
Neutralization PSV IC50 [3]: 1.74 µg/mL
EC50 [4]: 3 µg/mL
EC50 [5]: 4 µg/mL

B7: antibody C10P8 (antibody, V domains shown)
VH: QVQLQESGPGLVKPSQTLSLTCTVSGGSISSGRYYWSWIRQPAGKGLEWIGRVYFSGSTNYNPSLKNRVTLSVDTSKNQFSLKLSSVIAADTAVYYCARAVRDYGDSYSFDYWGQGTLVTVSS
VL: QSALTQPASVSGSPGQSITISCTGSSSDIGGYNYVSWYQVHPGKAPHLKIYDVVNRPSGVSNRFPGSKSGNTASLTISGLLADDEAYYYCCSYSIRGTPVFGGGTKLTVL
Neutralization PSV IC50 [1]: > 12.5 µg/mL
Neutralization PSV IC50 [2]: > 12.5 µg/mL
Neutralization PSV IC50 [3]: > 12.5 µg/mL

B8: antibody C10P7 (antibody, V domains shown)
VH: QVQLVQSGSEVKKPGTSVKVSCKASGETYVGHSISWVRQAPGAGLEWMGWISLHNGNVKYAQKLQGRVTMTTDTSTITAYMELRNLTSDDTAVYYCARVPMKIYGVIVFGEYYYDQLDVWGQGTTVTVSS
VL: QSALTQPPSASGSPGQSVTISCTGTGSDVGGYNYVSWYQQHPGKAPKLMIYEVSKRPSGVPDRFSGSKSGNTASLTVSGLQAEDEADYYCSSYAGSKVVFGGGTKLTVL
Neutralization PSV IC50 [1]: 6.56 µg/mL
Neutralization PSV IC50 [2]: 11.2 µg/mL
Neutralization PSV IC50 [3]: > 50 µg/mL
EC50 [4]: 8 µg/mL
EC50 [5]: 18 µg/mL

B9: antibody B10P5 (antibody, V domains shown)
VH: EVQLVESGGGLVQPGGSLRLSCSASGFTFSTYTMNWVRQAPGKGLDWVSYISSRSTSIYYADSVKGRFTISRDNAKNSLYLHMTSLRAEDTAVYYCVRDRGYYGSNWFDSWGQGTLVTVSS
VL: QSALTQPRSVSGSPGQSVTISCTGTSSDVGNYNYVSWYQQHPGKAPRLMISDVTKRPSGVPDRFSGSKSGNTASLTISGLQAEDEGDYYCCAYAGSYTLVFGGGTKLTVL
Neutralization PSV IC50 [1]: > 50 µg/mL
Neutralization PSV IC50 [2]: > 50 µg/mL
Neutralization PSV IC50 [3]: > 50 µg/mL

B10: antibody G7P3 (antibody, V domains shown)
VH: EVQLVESGGGLVQPGGSLRLSCAASGFSFGSYSMNWVRQAPGKGLEWVSHISSGSSSIYYADSVKGRFTISRDSVKNSLYLQMNNLRAEDTAVYYCARGWTGYDAFDIWGQGTMVTVSS
VL: DIQMTQSPSSLSASVGDRVTITCRASQVISNYLAWYQEKPGKVPKLLIYAASTLQSGVPSRFSGSGTGTDFTLTIRSLQPEDVATYYCQKYNNAPLTFGGGTKVEIK
Neutralization PSV IC50 [1]: 0.0008 µg/mL
Neutralization PSV IC50 [2]: 0.0054 µg/mL
Neutralization PSV IC50 [3]: > 50 µg/mL

B11: antibody E8P5 (antibody, V domains shown)
VH: EVQLVESGGGLVHPGGSLRLSCAASGFRFGTYSMNWVRQAPGKGLEWVSHISSGSSSIYYADSVKGRFTISRDSVKNSLYLQMNNLRAEDTAVYFCARGWTGYDAFDIWGQGTMVTVSS
VL: DIQMTQSPSSLSASVGDRVTITCRASQVISNYLAWYQEKPGEVPKLLIYAASTLQSGVPSRFSGSGTGTDFTLTISSLQPEDVATYYCQKYNNAPLTFGGGTKVEIK
Neutralization PSV IC50 [1]: 0.0013 µg/mL
Neutralization PSV IC50 [2]: 0.004 µg/mL
Neutralization PSV IC50 [3]: > 50 µg/mL

B12: antibody B9P6 (antibody, V domains shown)
VH: EVQLVESGGGLVQPGGSLRLSCAASGFTFRSYTMDWVRQAPGKGLEWVSCISGSSNHKYYADSVRGRFTISRDNAKNSLFLQMNSLRAEDSAVYYCAREDDILTPLYGMDVWGPGTTVTVSS
VL: EIVLTQSPDTLSLSPGARATLSCRASQSVRSNYLAWYQQKPGQAPRLLIYGASSRATAIPDRFSGSGSGTDFTLTITRLEPEDFAVYYCHQYGSSPRTFGQGTKVEIK
Neutralization PSV IC50 [1]: 0.0371 µg/mL
Neutralization PSV IC50 [2]: 0.0002 µg/mL
Neutralization PSV IC50 [3]: 0.0176 µg/mL
EC50 [4]: 0.035 µg/mL
EC50 [5]: 0.12 µg/mL

B13: antibody G11P1 (antibody, V domains shown)
VH: EVQLVESGGGLVQPGGSLRLSCAASGFTFRSYSMDWVRQAPGKGLEWVSYISGSSNQKYYTDSVRGRFTISRDNAKNSLFLQMNSLRAEDSAVYYCAREDDILTPLYGMDVWGPGTTVTVSS
VL: EIVLTQSPDTLSLSPGARATLSCRASQSVRSNYLAWYQQKPGQAPRLLIYGASSRATAIPDRFSGSGSGTDFTLTITRLEPEDFAVYYCHQYASSPRTFGQGTKVEIK
Neutralization PSV IC50 [1]: 0.112 µg/mL
Neutralization PSV IC50 [2]: 0.0008 µg/mL
Neutralization PSV IC50 [3]: 0.02 µg/mL
EC50 [4]: 0.055 µg/mL
EC50 [5]: 0.035 µg/mL

B14: antibody E11P6 (antibody, V domains shown)
VH: EVQLVESGGGLVQPGGSLRLSCAASGFTFRSYSMDWVRQAPGKGLEWVSYISGSSNQKYYTDSVRGRFTISRDNAKNSLFLQMNSLRAEDSAVYYCAREDDILTPLYGMDVWGPGTTVTVSS
VL: EIVLTQSPDTLSLSPGARATLSCRASQSVRSNYLAWYQQKPGQAPRLLIYGASSRATAIPDRFSGSGSGTDLTLTITRLEPEDFAVYYCHQYASSPRTFGQGTKVEIK
Neutralization PSV IC50 [1]: 0.216 µg/mL
Neutralization PSV IC50 [2]: 0.0028 µg/mL
Neutralization PSV IC50 [3]: 0.0452 µg/mL
EC50 [4]: 0.09 µg/mL
EC50 [5]: 0.12 µg/mL

B15: antibody E9P7 (antibody, V domains shown)
VH: EVQLVESGGGLVQPGGSLRLSCTASGFTFRSYTMDWVRQAPGKGLEWVSCISGSSNHKYYADSVRGRFTISRDNAKNSLLLQMNSLRAEDSAVYYCAREDDILTPLYGMDVWGPGTTVTVSS
VL: EIVLTQSPDTLSLSPGARATLSCRASQSVRSNYLAWYQQKPGQAPRLLIYGASSRATAIPDRFSGSGSGTDFTLTITRLEPEDFAVYYCHQYGSSPRTFGQGTKVEIK
Neutralization PSV IC50 [1]: 0.277 µg/mL
Neutralization PSV IC50 [2]: 0.0003 µg/mL
Neutralization PSV IC50 [3]: 0.0333 µg/mL
EC50 [4]: 0.1 µg/mL
EC50 [5]: 0.2 µg/mL

B16: antibody E10P5 (antibody, V domains shown)
VH: QVQLQESGPGLVKPSQTLSLTCSVSGGSISSGNYYWSWIRQPAGKGLEWIGRIYTSGNTNYNPSLKSRVTMSVDTSKNQFSLKLSSVTATDTAVYYCARVRRDGYNAFDYWGQGTLVTVSS
VL: SYELTQPPSVSVSPGQTASIDCSGHNLGDKFTCWYQQKPGQSPVLVIYQDSKRPSGIPERFSGSNSGNTATLTISGTQAMDEADYYCQAWDSDTLYVFGTGTTVTVL
Neutralization PSV IC50 [1]: 0.0004 µg/mL
Neutralization PSV IC50 [2]: 0.0433 µg/mL
Neutralization PSV IC50 [3]: > 50 µg/mL
